Reference: patent US6127169

Target: specific cell surface receptors on mouse embryo fibroblasts

B1: mouse β-galactoside binding protein (GBP), natural or recombinant, complexed or non-complexed form not told (ligand)
chain: ACGLVASNLNLKPGECLKVRGEVASDAKSFVLNLGKDSNNLCLHFNPRFNAHGDANTIVCNTKEDGTWGTEHREPAFPFQPGSITEVCITFDQADLTIKLPDGHEFKFPNRLNMEAINYMAADGDFKIKCVAFE
modifications: 125I label in the receptor binding assays
Work on B1 yielded a growth inhibition of synchronous mouse embryo fibroblasts (cell count) of 100%.
